Assay: Galactose-1-phosphate uridylyltransferase (GalT) activity of the enzyme liquid
Type: biochemical, E. coli
Details: galactose-1-phosphate uridylyltransferase activity of purified enzyme liquid, method by Takeda et al.
Method: E. coli (JM109 strain) (from Takara Bio) was transformed with a pTrc-GalT plasmid (JP-A-2002-335988) in which a gene encoding E. coli-derived GalT has been inserted. The transformed cells were inoculated to a 2×YT medium (50 mL) containing 100 μg/mL ampicillin, followed by shake culturing at 37° C. When the number of the cells reached 1×10^8 cells/mL, IPTG was added to the culture so as to adjust the final concentration to 1 mM, and shake culture was continued for further five hours. After completion of culturing, cells were collected through centrifugation (9,000×g, 20 min) and suspended in a buffer (50 mM HEPES-NaOH (pH: 8.0), 0.1 mM zinc sulfate, 10 mM 2-mercaptoethanol, and 50 mM sodium chloride) […]). The cells were disrupted through ultrasonication, and the product was centrifuged (20,000×g, 10 min), to thereby remove cell residues.
The thus-produced fraction was employed as an enzyme liquid in the following synthesis reactions. The galactose-1-phosphate uridylyltransferase (GalT) activity of the enzyme liquid was determined (Table 1). In the present invention, GalT activity was determined through a method by Takeda et al. (JP-A-2002-335988). The thus-yielded galactose-1-phosphate uridylyltransferase is identical to hexose-1-phosphate uridylyltransferase and catalyzes the same reaction (E.C.2.7.7.12).

B1: GalT: E. coli-derived galactose-1-phosphate uridylyltransferase, purified enzyme liquid (protein, UniProt P09148 1-348, looked up)
Galactose-1-phosphate …: MTQFNPVDHPHRRYNPLTGQWILVSPHRAKRPWQGAQETPAKQVLPAHDPDCFLCAGNVRVTGDKNPDYTGTYVFTNDFAALMSDTPDAPESHDPLMRCQSARGTSRVICFSPDHSKTLPELSVAALTEIVKTWQEQTAELGKTYPWVQVFENKGAAMGCSNPHPHGQIWANSFLPNEAEREDRLQKEYFAEQKSPMLVDYVQRELADGSRTVVETEHWLAVVPYWAAWPFETLLLPKAHVLRITDLTDAQRSDLALALKKLTSRYDNLFQCSFPYSMGWHGAPFNGEENQHWQLHAHFYPPLLRSATVRKFMVGYEMLAETQRDLTAEQAAERLRAVSDIHFRESGV
B1 showed an Enzymatic activity of 46.7 units/mg protein.
